Assay results reported in patent publication US12698507B2, “Methods and compositions for conferring and/or enhancing herbicide tolerance using protoporphyrinogen IX oxidase of various cyanobacteria or variant thereof” (FarmHannong Co., Ltd., priority 2019, dated 2026).
Where a chain is given by its changes, count along the chain named. Names and notes keep the numbering of the source.

Tests used:
[1] = molecular target: T1, Thermosynechococcus elongatus PKUAC-SCTE542 protoporphyrinogen IX oxidase CyPPO19, wild type, SEQ ID NO: 1 (MBP fusion) (Thermosynechococcus sichuanensis, UniProt A0A7D6JSC1); assay: PPO enzyme inhibition assay (IC50 for herbicides), CyPPO19 wild type fused to MBP; assay type: biochemical
T1 sequence (A0A7D6JSC1 1-467): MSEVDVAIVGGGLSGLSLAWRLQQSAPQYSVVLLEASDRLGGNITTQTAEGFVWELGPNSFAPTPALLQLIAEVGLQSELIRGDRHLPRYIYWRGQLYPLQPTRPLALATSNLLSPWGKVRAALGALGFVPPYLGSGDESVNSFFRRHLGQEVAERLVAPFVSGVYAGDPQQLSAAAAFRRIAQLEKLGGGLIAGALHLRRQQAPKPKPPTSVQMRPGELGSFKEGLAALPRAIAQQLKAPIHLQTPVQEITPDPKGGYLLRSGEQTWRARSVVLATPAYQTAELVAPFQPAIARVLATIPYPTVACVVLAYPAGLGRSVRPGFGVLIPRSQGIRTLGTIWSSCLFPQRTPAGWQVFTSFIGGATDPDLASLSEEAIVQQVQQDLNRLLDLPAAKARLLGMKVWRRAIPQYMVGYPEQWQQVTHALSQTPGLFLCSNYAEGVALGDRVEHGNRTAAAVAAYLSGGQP

[2] = molecular target: Thermosynechococcus elongatus PKUAC-SCTE542 protoporphyrinogen IX oxidase CyPPO19 (SEQ ID NO: 1) variant R89A (MBP fusion) (Thermosynechococcus sichuanensis, UniProt A0A7D6JSC1, R89A); assay: biochemical
Sequence of Thermosynechococcus elongatus PKUAC-SCTE542 protoporphyrinogen IX oxidase CyPPO19 (SEQ ID NO: 1) variant R89A (MBP fusion) (A0A7D6JSC1 entry or part of it R89A): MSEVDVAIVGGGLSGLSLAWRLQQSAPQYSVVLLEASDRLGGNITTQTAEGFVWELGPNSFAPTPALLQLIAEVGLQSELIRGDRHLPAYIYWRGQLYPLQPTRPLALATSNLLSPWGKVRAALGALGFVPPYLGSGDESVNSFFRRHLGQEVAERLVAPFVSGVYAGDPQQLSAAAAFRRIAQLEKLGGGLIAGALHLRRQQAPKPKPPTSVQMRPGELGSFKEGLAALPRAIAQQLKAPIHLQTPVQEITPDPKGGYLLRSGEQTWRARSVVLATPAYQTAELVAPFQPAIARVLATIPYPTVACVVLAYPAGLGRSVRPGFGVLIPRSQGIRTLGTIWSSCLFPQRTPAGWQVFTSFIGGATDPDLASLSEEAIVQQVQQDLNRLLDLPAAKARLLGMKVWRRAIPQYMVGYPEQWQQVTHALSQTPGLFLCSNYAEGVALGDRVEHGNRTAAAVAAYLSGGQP

[3] = molecular target: Thermosynechococcus elongatus PKUAC-SCTE542 protoporphyrinogen IX oxidase CyPPO19 (SEQ ID NO: 1) variant V165C (MBP fusion) (Thermosynechococcus sichuanensis, UniProt A0A7D6JSC1, V165C); assay: PPO enzyme inhibition assay (IC50 for herbicides), CyPPO19 V165C fused to MBP; assay type: biochemical
Sequence of Thermosynechococcus elongatus PKUAC-SCTE542 protoporphyrinogen IX oxidase CyPPO19 (SEQ ID NO: 1) variant V165C (MBP fusion) (A0A7D6JSC1 entry or part of it V165C): as the sequence (A0A7D6JSC1 entry or part of it R89A) above, with A89R, V165C counted along it

[4] = molecular target: Thermosynechococcus elongatus PKUAC-SCTE542 protoporphyrinogen IX oxidase CyPPO19 (SEQ ID NO: 1) variant V165S (MBP fusion) (Thermosynechococcus sichuanensis, UniProt A0A7D6JSC1, V165S); assay: biochemical; details: 50 μM protoporphyrinogen IX, pH 7.5, room temperature, 30 min, 10,000 means equivalent to or higher, read-out: IC50
Sequence of Thermosynechococcus elongatus PKUAC-SCTE542 protoporphyrinogen IX oxidase CyPPO19 (SEQ ID NO: 1) variant V165S (MBP fusion) (A0A7D6JSC1 entry or part of it V165S): as the sequence (A0A7D6JSC1 entry or part of it R89A) above, with A89R, V165S counted along it

[5] = molecular target: Thermosynechococcus elongatus PKUAC-SCTE542 protoporphyrinogen IX oxidase CyPPO19 (SEQ ID NO: 1) variant A167C (MBP fusion) (Thermosynechococcus sichuanensis, UniProt A0A7D6JSC1, A167C); assay: biochemical
Sequence of Thermosynechococcus elongatus PKUAC-SCTE542 protoporphyrinogen IX oxidase CyPPO19 (SEQ ID NO: 1) variant A167C (MBP fusion) (A0A7D6JSC1 entry or part of it A167C): as the sequence (A0A7D6JSC1 entry or part of it R89A) above, with A89R, A167C counted along it

[6] = molecular target: Thermosynechococcus elongatus PKUAC-SCTE542 protoporphyrinogen IX oxidase CyPPO19 (SEQ ID NO: 1) variant A167I (MBP fusion) (Thermosynechococcus sichuanensis, UniProt A0A7D6JSC1, A167I); assay: biochemical; details: 50 μM protoporphyrinogen IX, pH 7.5, room temperature, 30 min, 10,000 means equivalent to or higher, read-out: IC50
Sequence of Thermosynechococcus elongatus PKUAC-SCTE542 protoporphyrinogen IX oxidase CyPPO19 (SEQ ID NO: 1) variant A167I (MBP fusion) (A0A7D6JSC1 entry or part of it A167I): as the sequence (A0A7D6JSC1 entry or part of it R89A) above, with A89R, A167I counted along it

[7] = molecular target: Thermosynechococcus elongatus PKUAC-SCTE542 protoporphyrinogen IX oxidase CyPPO19 (SEQ ID NO: 1) variant A167L (MBP fusion) (Thermosynechococcus sichuanensis, UniProt A0A7D6JSC1, A167L); assay: biochemical; details: 50 μM protoporphyrinogen IX, pH 7.5, room temperature, 30 min, 10,000 means equivalent to or higher, read-out: IC50
Sequence of Thermosynechococcus elongatus PKUAC-SCTE542 protoporphyrinogen IX oxidase CyPPO19 (SEQ ID NO: 1) variant A167L (MBP fusion) (A0A7D6JSC1 entry or part of it A167L): as the sequence (A0A7D6JSC1 entry or part of it R89A) above, with A89R, A167L counted along it

[8] = molecular target: Thermosynechococcus elongatus PKUAC-SCTE542 protoporphyrinogen IX oxidase CyPPO19 (SEQ ID NO: 1) variant V305M (MBP fusion) (Thermosynechococcus sichuanensis, UniProt A0A7D6JSC1, V305M); assay: PPO enzyme inhibition assay (IC50 for herbicides), CyPPO19 V305M fused to MBP; assay type: biochemical
Sequence of Thermosynechococcus elongatus PKUAC-SCTE542 protoporphyrinogen IX oxidase CyPPO19 (SEQ ID NO: 1) variant V305M (MBP fusion) (A0A7D6JSC1 entry or part of it V305M): as the sequence (A0A7D6JSC1 entry or part of it R89A) above, with A89R, V305M counted along it

[9] = molecular target: Thermosynechococcus elongatus PKUAC-SCTE542 protoporphyrinogen IX oxidase CyPPO19 (SEQ ID NO: 1) variant V305L (MBP fusion) (Thermosynechococcus sichuanensis, UniProt A0A7D6JSC1, V305L); assay: PPO enzyme inhibition assay (IC50 for herbicides), CyPPO19 V305L fused to MBP; assay type: biochemical
Sequence of Thermosynechococcus elongatus PKUAC-SCTE542 protoporphyrinogen IX oxidase CyPPO19 (SEQ ID NO: 1) variant V305L (MBP fusion) (A0A7D6JSC1 entry or part of it V305L): as the sequence (A0A7D6JSC1 entry or part of it R89A) above, with A89R, V305L counted along it

[10] = tested on: A. thaliana; assay: PPO-inhibiting herbicide tolerance test of transgenic A. thaliana (herbicide spray, injury index); assay type: in vivo, Arabidopsis thaliana; details: transgenic A. thaliana (T2), tiafenacil or flumioxazin spray
[11] = tested on: PPO-deficient BT3 E. coli (ΔPPO); assay: PPO-inhibiting herbicide tolerance test of PPO variants in E. coli (growth on herbicide-containing LB agar); assay type: cell-based; details: LB agar with 0 to 2,000 μM herbicide, 37° C., dark, 16-20 hours
Summary of the method: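 Transformants were grown to OD600 0.5–1, adjusted to OD600=0.5 and spotted as 10-fold dilutions on LB agar with ampicillin (100 μg/mL) and 0 to 2,000 μM herbicide. Plates were kept at 37° C in the dark for 16-20 hours; growth was scored relative to wild type, one '+' per 10-fold resistance.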

[12] = CyPPO19 variants in BT3 (ΔPPO) E. coli
[13] = CyPPO18 variants in BT3 (ΔPPO) E. coli

## CS(=O)(=O)NC(=O)c1cc(Oc2ccc(C(F)(F)F)cc2Cl)ccc1[N+](=O)[O-] [Fomesafen]
[1]
  IC50: 242 nM
[2]
  IC50: 2360 nM
[3]
  IC50: 330 nM
[4]
  IC50: 348 nM
[5]
  IC50: 843 nM
[6]
  IC50: 899 nM
[7]
  IC50: 1760 nM
[8]
  IC50: 257 nM
[9]
  IC50: 466 nM

B1: CyPPO19 WT: PPO protein derived from Thermosynechococcus elongatus PKUAC-SCTE542 strain, SEQ ID NO: 1 (protein)
chain: T1 sequence (A0A7D6JSC1 1-467)
modifications: Synthetic_PPO of Thermosynechococcus elongatus PKUAC-SCTE542 (comprising GenBank No. CP032152.1)
[10]
  herbicide tolerance compared to non-transgenic plants: increased herbicide tolerance

B2: CyPPO19 R89A + V305M + F360I: variant of CyPPO19 PPO protein (SEQ ID NO: 1) (protein)
chain: T1 sequence (A0A7D6JSC1 1-467) with R89A, V305M, F360I
modifications: Synthetic_PPO of Thermosynechococcus elongatus PKUAC-SCTE542 (comprising GenBank No. CP032152.1)
[11]; [12]
  tolerance level relative to wild type, Carfentrazone: + (‘+’ per each 10-fold resistance)
  tolerance level relative to wild type, Flumioxazin: +++ (‘+’ per each 10-fold resistance)
  tolerance level relative to wild type, Fomesafen: + (‘+’ per each 10-fold resistance)
  tolerance level relative to wild type, Oxyfluorfen: + (‘+’ per each 10-fold resistance)
  tolerance level relative to wild type, Saflufenacil: +++ (‘+’ per each 10-fold resistance)
  tolerance level relative to wild type, Sulfentrazone: ++ (‘+’ per each 10-fold resistance)
  tolerance level relative to wild type, Tiafenacil: +++ (‘+’ per each 10-fold resistance)

B3: CyPPO19 R89A + V305M + F360V: variant of CyPPO19 PPO protein (SEQ ID NO: 1) (protein)
chain: T1 sequence (A0A7D6JSC1 1-467) with R89A, V305M, F360V
modifications: Synthetic_PPO of Thermosynechococcus elongatus PKUAC-SCTE542 (comprising GenBank No. CP032152.1)
[11]; [12]
  tolerance level relative to wild type, Carfentrazone: + (‘+’ per each 10-fold resistance)
  tolerance level relative to wild type, Flumioxazin: +++ (‘+’ per each 10-fold resistance)
  tolerance level relative to wild type, Fomesafen: + (‘+’ per each 10-fold resistance)
  tolerance level relative to wild type, Oxyfluorfen: + (‘+’ per each 10-fold resistance)
  tolerance level relative to wild type, Saflufenacil: +++ (‘+’ per each 10-fold resistance)
  tolerance level relative to wild type, Sulfentrazone: ++ (‘+’ per each 10-fold resistance)
  tolerance level relative to wild type, Tiafenacil: +++ (‘+’ per each 10-fold resistance)

B4: CyPPO18 R89A + V165S + V305M + F360I: variant of CyPPO18 PPO protein (SEQ ID NO: 3) (protein)
chain: MIEVDVAIVGGGLSGLSVAWRLQRSAPHYSGVLLEASDRLGGNITTQAAEGFVWELGPNSFAPTPALLQLIAEVGLHSELIRGDRHLPAYIYWRGELYPLEPTRPLALATSNLLSPWGKVRAALGALGFVPPYLGSGDESVDSFFRRHLGQEVAERLVAPFVSGSYAGDPQQLSAAAAFRRIAQLEKLGGSLIAGALRLRRQQPPQPKPPAQVQMRPGELGSFREGLAALPRAIAQQLKAPLHLQTPVEAITPEPKGGYLLRSGEQTWHARSVVLATPAYQSAELVAPFQPAIARALATIPYPTMACVVLAYPAGLGRSVRPGFGVLVPRGQGIRTLGTIWSSCLFPQRTPAGWQVFTSIIGGATDPDLASLREEAIVEQVQQDLTRLLDLPAAKARLLGMKVWRRAIPQYIVGYPQQWQQLTHALTQTPGLFLCSNYAEGVALGDRVEHGNRTAAAVAAYLAGGQS
modifications: Synthetic_PPO of Thermosynechococcus vulcanus NIES-2134 (BAY51976)
[11]; [13]
  tolerance level relative to wild type, Carfentrazone: ++ (‘+’ per each 10-fold resistance)
  tolerance level relative to wild type, Flumioxazin: +++++ (until ‘+++++’ as maximal resistance)
  tolerance level relative to wild type, Fomesafen: +++++ (until ‘+++++’ as maximal resistance)
  tolerance level relative to wild type, Oxyfluorfen: ++ (‘+’ per each 10-fold resistance)
  tolerance level relative to wild type, Saflufenacil: +++++ (until ‘+++++’ as maximal resistance)
  tolerance level relative to wild type, Sulfentrazone: +++++ (until ‘+++++’ as maximal resistance)
  tolerance level relative to wild type, Tiafenacil: +++++ (until ‘+++++’ as maximal resistance)

B5: CyPPO18 R89A + V165C + A167L + V305M + F360I: variant of CyPPO18 PPO protein (SEQ ID NO: 3) (protein)
chain: B4 chain with S165C, A167L
modifications: Synthetic_PPO of Thermosynechococcus vulcanus NIES-2134 (BAY51976)
[11]; [13]
  tolerance level relative to wild type, Carfentrazone: ++ (‘+’ per each 10-fold resistance)
  tolerance level relative to wild type, Flumioxazin: +++++ (until ‘+++++’ as maximal resistance)
  tolerance level relative to wild type, Fomesafen: +++++ (until ‘+++++’ as maximal resistance)
  tolerance level relative to wild type, Oxyfluorfen: ++ (‘+’ per each 10-fold resistance)
  tolerance level relative to wild type, Saflufenacil: +++++ (until ‘+++++’ as maximal resistance)
  tolerance level relative to wild type, Sulfentrazone: +++++ (until ‘+++++’ as maximal resistance)
  tolerance level relative to wild type, Tiafenacil: +++++ (until ‘+++++’ as maximal resistance)
